The values below come from publication PMC5442856, “A bacterial negative transcription regulator binding on an inverted repeat in the promoter for epothilone biosynthesis”.

This series addresses T1, Esi (His-Esi) (Sorangium cellulosum So0157-2, UniProt UPI000354DD11 1-373).
T1 sequence: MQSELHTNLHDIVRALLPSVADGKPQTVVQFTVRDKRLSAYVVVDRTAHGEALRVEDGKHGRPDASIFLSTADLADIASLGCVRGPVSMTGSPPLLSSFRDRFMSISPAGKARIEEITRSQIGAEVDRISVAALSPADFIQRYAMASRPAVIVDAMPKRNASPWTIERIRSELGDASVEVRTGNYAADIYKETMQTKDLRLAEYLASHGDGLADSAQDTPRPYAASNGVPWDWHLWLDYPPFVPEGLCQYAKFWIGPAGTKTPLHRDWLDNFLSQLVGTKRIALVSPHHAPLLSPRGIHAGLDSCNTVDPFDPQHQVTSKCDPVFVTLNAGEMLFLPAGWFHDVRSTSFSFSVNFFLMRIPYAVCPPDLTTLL
Briefly: EMSA; poly(dI-dC) competitor; increasing His-Esi; 12 pmol DNA; EMSA: 25 uL with 2.5 uL of 10x buffer (final about 12 mM HEPES, 4 mM Tris, 60 mM KCl, 5 mM MgCl2, 0.1 mM EDTA, pH 8.0), 1 uL glycerol buffer (20% glycerol, 20 mM HEPES), poly(dI-dC), remainder protein and 50 mM NaH2PO4; 30 C, 30 min; 5% native PAGE in TGE pH 8.0 at 4 C. The note with it: protein: recombinant; tags: N-terminal 6xHis (pET-28a); blunt. A general note: In EMSA bound probe runs differently from free probe, usually more slowly.

B1: 17-bp operator of epothilone promoter (dsDNA)
DNA 1: GGGACGAGCTAATTCCC
DNA 2: GGGAATTAGCTCGTCCC
Take B1: the binding result is on record as “binds”.
